Test results reported in article PMC8958351, “Ubiquitylation of cyclin C by HACE1 regulates cisplatin‐associated sensitivity in gastric cancer” (Clinical and Translational Medicine, 2022).

Assays:
Test in all cases: pull-down; GST pull-down; purified GST-HACE1 proteins incubated with purified cyclin C-MBP-His for 6 h at 4°C in 50 mM Tris-Cl, 200 mM NaCl, 1 mM EDTA, 1% NP-40, 1 mM DTT, 10 mM MgCl2, 10 μg/ml BSA, pH 8.0; GST pulled down, cyclin C immunoblotted
Settings in all cases: both partners purified
[1] = biological target: T1, GST‐HACE1 truncation, amino acids 547–909 (human, UniProt Q8IYU2 547-909)
T1 sequence (looked up): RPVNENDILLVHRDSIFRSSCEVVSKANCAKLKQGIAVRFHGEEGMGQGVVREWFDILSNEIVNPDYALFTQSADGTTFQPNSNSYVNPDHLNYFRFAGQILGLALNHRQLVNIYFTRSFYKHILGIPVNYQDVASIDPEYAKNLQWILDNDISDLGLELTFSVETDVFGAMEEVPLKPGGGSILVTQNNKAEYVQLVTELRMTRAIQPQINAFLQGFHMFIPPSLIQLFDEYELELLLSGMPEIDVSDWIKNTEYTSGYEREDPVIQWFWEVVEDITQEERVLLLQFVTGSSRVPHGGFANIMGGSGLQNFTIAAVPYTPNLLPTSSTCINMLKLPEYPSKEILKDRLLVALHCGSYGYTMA

[2] = biological target: T2, GST‐HACE1 (human, UniProt Q8IYU2 1-909)
T2 construct: HACE1, human; the cDNA encoding HACE1 cloned into pGEX4T-1; also called recombinant glutathione (GST)‐tagged HACE1; GST‐fused HACE1
T2 sequence (looked up): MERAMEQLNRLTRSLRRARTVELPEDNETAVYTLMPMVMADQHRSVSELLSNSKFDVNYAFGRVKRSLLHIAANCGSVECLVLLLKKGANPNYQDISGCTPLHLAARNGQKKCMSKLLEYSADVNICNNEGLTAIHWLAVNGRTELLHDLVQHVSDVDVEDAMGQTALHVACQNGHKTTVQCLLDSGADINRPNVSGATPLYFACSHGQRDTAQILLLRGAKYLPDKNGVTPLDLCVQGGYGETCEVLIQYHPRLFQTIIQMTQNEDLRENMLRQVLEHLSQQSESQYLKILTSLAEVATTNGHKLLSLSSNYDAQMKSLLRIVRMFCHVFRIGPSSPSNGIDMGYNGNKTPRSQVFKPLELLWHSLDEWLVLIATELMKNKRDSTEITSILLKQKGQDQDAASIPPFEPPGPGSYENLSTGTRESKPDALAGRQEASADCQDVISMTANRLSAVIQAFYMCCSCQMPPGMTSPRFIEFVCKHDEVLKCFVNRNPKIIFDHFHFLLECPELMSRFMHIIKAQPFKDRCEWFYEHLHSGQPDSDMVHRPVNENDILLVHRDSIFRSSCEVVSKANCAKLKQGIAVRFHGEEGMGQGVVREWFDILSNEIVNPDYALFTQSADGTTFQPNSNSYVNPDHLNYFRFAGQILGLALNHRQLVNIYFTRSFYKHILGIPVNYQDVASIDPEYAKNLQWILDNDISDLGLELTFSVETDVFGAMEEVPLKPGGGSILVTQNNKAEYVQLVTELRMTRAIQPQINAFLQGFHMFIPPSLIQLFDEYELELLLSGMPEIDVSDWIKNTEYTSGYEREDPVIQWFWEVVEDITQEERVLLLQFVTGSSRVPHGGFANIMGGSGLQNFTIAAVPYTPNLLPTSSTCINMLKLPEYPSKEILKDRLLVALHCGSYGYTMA

[3] = biological target: T3, GST‐HACE1 truncation, amino acids 1–546 (human, UniProt Q8IYU2 1-546)
T3 sequence (looked up): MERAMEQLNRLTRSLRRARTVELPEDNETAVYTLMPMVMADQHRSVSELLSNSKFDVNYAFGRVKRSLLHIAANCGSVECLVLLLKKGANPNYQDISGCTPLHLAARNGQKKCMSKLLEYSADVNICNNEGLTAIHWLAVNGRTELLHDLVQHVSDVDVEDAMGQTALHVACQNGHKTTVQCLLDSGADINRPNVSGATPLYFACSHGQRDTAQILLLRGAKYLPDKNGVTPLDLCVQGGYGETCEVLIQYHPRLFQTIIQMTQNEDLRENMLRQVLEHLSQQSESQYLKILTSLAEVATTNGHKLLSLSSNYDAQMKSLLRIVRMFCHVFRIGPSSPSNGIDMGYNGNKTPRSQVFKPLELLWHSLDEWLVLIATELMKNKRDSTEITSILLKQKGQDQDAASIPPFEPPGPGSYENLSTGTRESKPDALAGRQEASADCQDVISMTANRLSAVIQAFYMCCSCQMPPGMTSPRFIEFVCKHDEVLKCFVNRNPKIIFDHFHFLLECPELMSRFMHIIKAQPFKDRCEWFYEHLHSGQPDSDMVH

[4] = biological target: T4, GST‐HACE1 truncation, amino acids 258–909 (human, UniProt Q8IYU2 258-909)
T4 sequence (looked up): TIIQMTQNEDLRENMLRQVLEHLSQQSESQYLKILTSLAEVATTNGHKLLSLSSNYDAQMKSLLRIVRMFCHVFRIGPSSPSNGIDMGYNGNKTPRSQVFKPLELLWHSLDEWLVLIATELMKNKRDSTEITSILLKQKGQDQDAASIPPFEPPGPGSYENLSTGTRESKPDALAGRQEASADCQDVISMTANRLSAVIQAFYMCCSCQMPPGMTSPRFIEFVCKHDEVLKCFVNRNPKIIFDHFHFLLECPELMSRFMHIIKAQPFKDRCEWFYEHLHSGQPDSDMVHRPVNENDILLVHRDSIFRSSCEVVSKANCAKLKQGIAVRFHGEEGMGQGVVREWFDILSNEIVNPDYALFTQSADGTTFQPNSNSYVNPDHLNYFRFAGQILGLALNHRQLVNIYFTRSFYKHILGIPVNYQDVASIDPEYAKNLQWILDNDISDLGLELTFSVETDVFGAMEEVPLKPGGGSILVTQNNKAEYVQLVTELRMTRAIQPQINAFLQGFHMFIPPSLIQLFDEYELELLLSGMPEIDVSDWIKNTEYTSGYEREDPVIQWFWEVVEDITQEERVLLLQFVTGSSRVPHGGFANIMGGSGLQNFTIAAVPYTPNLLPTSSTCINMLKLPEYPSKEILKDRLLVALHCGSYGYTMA

Measured: binding result

B1: MBP‐His‐tagged cyclin C (natural protein, human)
chain: MAGNFWQSSHYLQWILDKQDLLKERQKDLKFLSEEEYWKLQIFFTNVIQALGEHLKLRQQVIATATVYFKRFYARYSLKSIDPVLMAPTCVFLASKVEEFGVVSNTRLIAAATSVLKTRFSYAFPKEFPYRMNHILECEFYLLELMDCCLIVYHPYRPLLQYVQDMGQEDMLLPLAWRIVNDTYRTDLCLLYPPFMIALACLHVACVVQQKDARQWFAELSVDMEKILEIIRVILKLYEQWKNFDERKEMATILSKMPKPKPPPNSEGEQGPNGSQNSSYSQS
notes: Cyclin C, human; the cDNA of CCNC cloned into pSJ8 (pET21a derivative, MBP-His fusion vector); also called cyclin C‐MBP‐His; source: Escherichia coli BL21, purified (Ni‐NTA agarose beads)
binds: all assays above
